The target of assay [1] is T1, EGF6+MEMBRANE PROXIMAL PEPTIDE.
T1 construct: also called Hu DLL3 EGF6+membrane proximal peptide on HEK293 cells
T1 membrane-anchored DLL3 subdomain construct: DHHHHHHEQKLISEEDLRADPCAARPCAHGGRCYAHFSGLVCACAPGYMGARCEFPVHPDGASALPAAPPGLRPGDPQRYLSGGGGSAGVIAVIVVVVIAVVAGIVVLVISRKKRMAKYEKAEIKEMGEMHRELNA
Description: flow cytometry on HEK293 cells expressing the DLL3 subdomain construct, 1.6 nM binder, PE anti-human secondary, control: secondary antibody only. How it is done: DLL3/CD3 binding proteins were produced by transient transfection of CHO-E cells with the pTT5 vectors carrying the chain-encoding genes, as described in Example 2. […] Bound molecules were detected with PE-conjugated anti-human secondary antibody (Sigma-Aldrich, #P8047). As negative control, cells were incubated with secondary antibody only.
The samples were measured by flow-cytometry. […] The sequences of the epitope domains are listed in Example 5, Table 3.

For assay [2], the target named is T2, FLAG-tagged human DLL4 full length (human, UniProt Q9NR61 1-685).
T2 construct: also called human DLL4 on HEK293 cells
T2 sequence (Q9NR61 other isoform, or with tags, fused parts or gaps limits assumed): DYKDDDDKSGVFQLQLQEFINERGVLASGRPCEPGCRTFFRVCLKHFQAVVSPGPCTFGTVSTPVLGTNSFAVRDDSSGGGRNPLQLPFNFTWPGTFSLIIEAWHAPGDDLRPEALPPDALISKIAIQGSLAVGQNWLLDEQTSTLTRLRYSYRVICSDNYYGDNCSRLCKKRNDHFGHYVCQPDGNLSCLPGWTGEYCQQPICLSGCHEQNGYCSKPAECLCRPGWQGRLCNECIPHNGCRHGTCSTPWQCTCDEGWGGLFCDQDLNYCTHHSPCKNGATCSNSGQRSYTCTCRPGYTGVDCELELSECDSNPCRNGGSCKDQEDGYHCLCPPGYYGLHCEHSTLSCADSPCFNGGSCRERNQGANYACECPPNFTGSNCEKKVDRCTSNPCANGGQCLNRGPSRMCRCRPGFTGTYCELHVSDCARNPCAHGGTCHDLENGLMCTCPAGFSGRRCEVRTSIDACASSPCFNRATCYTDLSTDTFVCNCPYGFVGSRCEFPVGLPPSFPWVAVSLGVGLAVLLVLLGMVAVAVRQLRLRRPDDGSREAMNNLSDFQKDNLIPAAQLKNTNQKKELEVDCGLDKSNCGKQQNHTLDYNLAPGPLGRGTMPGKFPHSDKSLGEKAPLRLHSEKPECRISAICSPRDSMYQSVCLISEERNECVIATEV
Briefly: flow cytometry on HEK293 cells expressing human DLL4 (HEK293-huDLL4), PE anti-human secondary, control: secondary antibody only. How it is done:
Bound molecules were detected with PE-conjugated anti-human secondary antibody (Sigma-Aldrich, #P8047). As negative control, cells were incubated with secondary antibody only. The samples were measured by flow-cytometry.

For a further assay, the target named is T3, EGF4+5.
T3 construct: also called Hu DLL3 EGF4+5 on HEK293 cells
T3 membrane-anchored DLL3 subdomain construct: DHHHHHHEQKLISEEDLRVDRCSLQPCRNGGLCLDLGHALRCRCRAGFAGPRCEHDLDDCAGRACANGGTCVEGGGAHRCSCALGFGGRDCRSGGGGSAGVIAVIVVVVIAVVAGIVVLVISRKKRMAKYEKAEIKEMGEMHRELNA
Description: flow cytometry on HEK293 cells expressing the DLL3 subdomain construct, PE anti-human secondary, control: secondary antibody only. The procedure, abridged:
(§1)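 Binders tested on HEK293 cells displaying the DLL3 subdomain construct; bound molecules detected by flow cytometry using PE-conjugated anti-human secondary antibody. Negative control: cells with secondary antibody only.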

In the next assay the target is T4, EGF1+2.
T4 construct: also called Hu DLL3 EGF1+2 on HEK293 cells
T4 membrane-anchored DLL3 subdomain construct: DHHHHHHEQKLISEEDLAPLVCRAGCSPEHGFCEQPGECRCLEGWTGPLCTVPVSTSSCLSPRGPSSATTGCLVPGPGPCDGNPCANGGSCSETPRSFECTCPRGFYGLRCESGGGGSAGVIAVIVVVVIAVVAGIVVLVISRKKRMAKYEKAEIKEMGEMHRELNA
The description is as above. Summed up:
as §1

The next assay deals with T5, EGF3+4.
T5 construct: also called Hu DLL3 EGF3+4 on HEK293 cells
T5 membrane-anchored DLL3 subdomain construct: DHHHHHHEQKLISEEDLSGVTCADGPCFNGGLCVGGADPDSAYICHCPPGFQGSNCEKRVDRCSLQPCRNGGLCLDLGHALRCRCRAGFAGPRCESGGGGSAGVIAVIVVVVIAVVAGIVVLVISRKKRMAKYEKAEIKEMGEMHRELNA
The description is as above. The procedure, abridged:
as §1

A further assay deals with T6, EGF2+3.
T6 construct: also called Hu DLL3 EGF2+3 on HEK293 cells
T6 membrane-anchored DLL3 subdomain construct: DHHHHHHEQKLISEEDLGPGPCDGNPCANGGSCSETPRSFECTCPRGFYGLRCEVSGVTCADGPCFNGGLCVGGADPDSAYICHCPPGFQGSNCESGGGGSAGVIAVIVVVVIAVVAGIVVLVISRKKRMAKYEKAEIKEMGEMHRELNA
Described as above. The procedure, abridged:
as §1

The target of assay [3] is T7, human DLL3 (endogenous, on SCLC cell lines NCI-H82 and SHP77 and in SCLC tissue) (human, UniProt Q9NYJ7 27-618).
T7 sequence (looked up): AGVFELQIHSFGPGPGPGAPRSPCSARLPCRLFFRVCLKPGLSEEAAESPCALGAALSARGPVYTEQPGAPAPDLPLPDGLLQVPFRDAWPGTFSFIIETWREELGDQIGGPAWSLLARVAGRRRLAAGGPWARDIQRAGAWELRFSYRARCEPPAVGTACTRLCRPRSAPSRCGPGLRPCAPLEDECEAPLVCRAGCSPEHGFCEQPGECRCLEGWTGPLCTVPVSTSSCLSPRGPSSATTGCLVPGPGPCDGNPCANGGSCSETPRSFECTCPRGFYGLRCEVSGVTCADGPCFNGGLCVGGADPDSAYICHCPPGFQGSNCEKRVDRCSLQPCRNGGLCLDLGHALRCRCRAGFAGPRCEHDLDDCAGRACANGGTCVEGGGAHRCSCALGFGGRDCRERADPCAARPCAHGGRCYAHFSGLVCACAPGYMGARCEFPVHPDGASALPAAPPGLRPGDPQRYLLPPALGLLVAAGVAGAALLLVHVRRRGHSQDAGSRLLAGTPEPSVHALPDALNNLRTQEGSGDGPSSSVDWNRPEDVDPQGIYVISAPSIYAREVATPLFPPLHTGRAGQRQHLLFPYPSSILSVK
Description: cell-based or functional assay.

For assay [4], the target named is T7, human DLL3 (endogenous, on SCLC cell …). Briefly: cell-based or functional assay. The source holds these as a separate data set.

Substitutions are numbered along the chain they refer to.

B1: DLL3#3/CD3#1 (bispecific antibody, human IgG1, kappa, lambda, L234A L235A)
chain 1: DIQMTQSPSAMSASVGDRVTITCRASQGISNYLVWFQQKPGKAPKRLIYAVSSLYSGVPSRFSGSGSGTEFTLTISSLQPEDFATYYCLQHDSYPYTFGQGTKLEIKRTVAAPSVFIFPPSDEQLKSGTASVVCLLNNFYPREAKVQWKVDNALQSGNSQESVTEQDSKDSTYSLSSTLTLSKADYEKHKVYACEVTHQGLSSPVTKSFNRGECGGGGSEGKSSGSGSESKSTEGKSSGSGSESKSTGGGGSQVQLVQSGAEVKKPGASVKVSCKASGYTFTSYYVHWVRQAPGQGLEWMVIINPGGGTTSYAQKFLGRVTMTRDTSTNTVYMELKSLRSEDTAVYYCARGEAVTGNYFYYGMDVWGQGTTVTVSSASTKGPSVFPLAPSSKSTSGGTAALGCLVKDYFPEPVTVSWNSGALTSGVHTFPAVLQSSGLYSLSSVVTVPSSSLGTQTYICNVNHKPSNTKVDKRVEPKSCDKTHTCPPCPAPEAAGGPSVFLFPPKPKDTLMISRTPEVTCVVVDVSHEDPEVKFNWYVDGVEVHNAKTKPREEQYNSTYRVVSVLTVLHQDWLNGKEYKCKVSNKALPAPIEKTISKAKGQPREPQVYTLPPSREEMTKNQVSLWCLVKGFYPSDIAVEWESNGQPENNYKTTPPVLDSDGSFFLYSKLTVDKSRWQQGNVFSCSVMHEALHNHYTQKSLSLSPG
chain 2: EAVVTQEPSLTVSPGGTVTLTCRSSTGAVTTSNYANWVQEKPGQLPRGLIGGTNKRAPWVPARFSGSLLGGKAALTLSGAQPEDEAEYFCALWYSNLWVFGGGTKLTVLGQPKAAPSVTLFPPSSEELQANKATLVCLISDFYPGAVKVAWKADGSPVNTGVETTTPSKQSNNKYAASSYLSLTPEQWKSHRSYSCQVTHEGSTVEKTVAPAECSGGGGSEGKSSGSGSESKSTEGKSSGSGSESKSTGGGGSEVQLVESGGGLVQPGGSLKLSCAASGFTFNTYAMNWVRQAPGKGLEWVARIRSKYNNYATYYADSVKDRFTISRDDSKNTAYLQMNNLKTEDTAVYYCVRHGNFGNSYVSWFAYWGQGTLVTVSAASTKGPSVFPLAPSSKSTSGGTAALGCLVKDYFPEPVTVSWNSGALTSGVHTFPAVLQSSGLYSLSSVVTVPSSSLGTQTYICNVNHKPSNTKVDKRVEPKSCDKTHTCPPCPAPEAAGGPSVFLFPPKPKDTLMISRTPEVTCVVVDVSHEDPEVKFNWYVDGVEVHNAKTKPREEQYNSTYRVVSVLTVLHQDWLNGKEYKCKVSNKALPAPIEKTISKAKGQPREPQVYTLPPSREEMTKNQVSLSCAVKGFYPSDIAVEWESNGQPENNYKTTPPVLDSDGSFFLVSKLTVDKSRWQQGNVFSCSVMHEALHNRFTQKSLSLSPG
notes: Heterodimer of one DLL3 chain and one CD3 chain (scFab-Fc, knob-in-hole)
In the case of B1, the binding result in assay [1] is given as “binds”; in assay [2], “no binding (tested: 1.6 nM)”; in the assay with EGF4+5, “no binding (tested: 1.6 nM)”; in the assay with EGF1+2, “no binding (tested: 1.6 nM)”; with EGF3+4, “no binding (tested: 1.6 nM)”; in the assay with EGF2+3, “no binding (tested: 1.6 nM)”. Further, the “EC90, 72 hour cytotoxicity assay, purified T cells as effector cells, NCI-H82 target cells” value in assay [3] turned out to be 0.27 nM. Also, the “EC90, 72 hour cytotoxicity assay, purified T cells as effector cells, SHP77 target cells” value in assay [3] stood at 0.02 nM. In addition, in assay [4], the “EC90, 72 hour cytotoxicity assay (LDH release), non-stimulated PBMCs as effector cells, NCI-H82 target cells” value is 0.9 nM. Besides, the “EC90, 72 hour cytotoxicity assay (LDH release), non-stimulated PBMCs as effector cells, SHP77 target cells” value in assay [4] stood at 1.5 nM.

B2: DLL3#3/CD3#2 (bispecific antibody, human IgG1, kappa, lambda, L234A L235A)
chain 1: B1 chain 1
chain 2: B1 chain 2 with N309I
notes: as for B1
In the case of B2, the binding result in assay [1] is reported as “binds”; in assay [2], “no binding (tested: 1.6 nM)”; in the assay with EGF4+5, “no binding (tested: 1.6 nM)”; with EGF1+2, “no binding (tested: 1.6 nM)”; in the assay with EGF3+4, “no binding (tested: 1.6 nM)”; with EGF2+3 it was “no binding (tested: 1.6 nM)”. The “EC90, 72 hour cytotoxicity assay, purified T cells as effector cells, NCI-H82 target cells” value in assay [3] was determined as 2.5 nM. The “EC90, 72 hour cytotoxicity assay, purified T cells as effector cells, SHP77 target cells” value in assay [3] was found to be 3 nM. Moreover, the “EC90, 72 hour cytotoxicity assay (LDH release), non-stimulated PBMCs as effector cells, NCI-H82 target cells” value in assay [4] worked out at 3.9 nM. In assay [4], the “EC90, 72 hour cytotoxicity assay (LDH release), non-stimulated PBMCs as effector cells, SHP77 target cells” value stood at 16.5 nM.
